Data on 11 molecules can be found in article PMC3137622.

Test [1] deals with monoclonal antibody 7C11 (anti-Bla g 2). Briefly: competition ELISA. The conditions noted are these: chain shown with the change, solid phase rBla g 2-N93Q, read off a plot. A general note: An ELISA detects its analyte on a solid surface through an enzyme-linked reagent.
The target is the same in test [2]. Description: ELISA dose-response. The conditions noted are these: chain shown with the change; allergen concentration 100 ng/ml; parent: est. 1.8; read off a plot.
The target of test [3] is monoclonal antibody 4C3 (anti-Bla g 2). Description: competition ELISA. The conditions noted are these: chain shown with the change, solid phase rBla g 2-N93Q, read off a plot.
Chain of monoclonal antibody 4C3 (anti-Bla g 2) (chain, as listed by the source, chain 1 of 2): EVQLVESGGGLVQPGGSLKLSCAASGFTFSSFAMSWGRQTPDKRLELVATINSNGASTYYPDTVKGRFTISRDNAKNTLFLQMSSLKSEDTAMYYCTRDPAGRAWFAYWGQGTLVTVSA
Chain of monoclonal antibody 4C3 (anti-Bla g 2) (chain, as listed by the source, chain 2 of 2): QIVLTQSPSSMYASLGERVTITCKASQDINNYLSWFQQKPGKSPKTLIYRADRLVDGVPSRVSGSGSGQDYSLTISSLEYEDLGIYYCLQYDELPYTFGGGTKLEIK
Test [4] has the same target. Briefly: ELISA dose-response. The conditions noted are these: chain shown with the change, read off a plot.
[5] abbreviates: competitor concentration 0.1 µg/ml, parent: est. 47.
Where [6] appears, read: competitor concentration 1 µg/ml, parent: est. 5.
The mark [7] stands for this setting: competitor concentration 1 µg/ml, parent: est. 32.
The mark [8] stands for this setting: competitor concentration 10 µg/ml, parent: est. 5.
[9] abbreviates: allergen concentration 100 ng/ml, parent: est. 1.5.
The mark [10] stands for this setting: competitor concentration 0.1 µg/ml.
[11] abbreviates: competitor concentration 1 µg/ml.
Where [12] appears, read: allergen concentration 100 ng/ml, parent: est. 1.3.
Setting [13] is: competitor concentration 100 µg/ml, parent: est. 1.
The mark [14] stands for this setting: allergen concentration 100 ng/ml, parent: est. 0.48.
The mark [15] stands for this setting: competitor concentration 0.1 µg/ml, parent: est. 82.
Setting [16] is: allergen concentration about 400 ng/ml (highest point of the series), parent: est. 1.9.

Chain of monoclonal antibody 7C11 (anti-Bla g 2) (chain, as listed by the source, chain 2 of 2, other chains not shown): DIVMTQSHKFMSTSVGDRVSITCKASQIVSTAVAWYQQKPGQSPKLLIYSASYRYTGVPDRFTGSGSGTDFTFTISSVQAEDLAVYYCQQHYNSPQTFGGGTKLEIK

B1: recombinant Bla g 2-N93Q R83A (protein)
chain: VPLYKLVHVFINTQYAGITKIGNQNFLTVFDSTSCNVVVASQECVGGACVCPNLQKYEKLKPKYISDGNVQVKFFDTGSAVGAGIEDSLTISQLTTSQQDIVLADELSQEVCILSADVVVGIAAPGCPNALKGKTVLENFVEENLIAPVFSIHHARFQDGEHFGEIIFGGSDWKYVDGEFTYVPLVGDDSWKFRLDGVKIGDTTVAPAGTQAIIDTSKAIIVGPKAYVNPINEAIGCVVEKTTTRRICKLDCSKIPSLPDVTFVINGRNFNISSQYYIQQNGNLCYSGFQPCGHSDHFFIGDFFVDHYYSEFNWENKTMGFGRSVESV
Turning to B1, the other: Biotinylated mAb 7C11 bound to Bla g 2 (%) in test [1] (setting [5]) stood at 82%; in test [1] (setting [6]), 13%. For the same molecule, in test [2], the response (Absorbance (405 nm)) stood at 1.5.

B2: recombinant Bla g 2-N93Q E233A (protein)
chain: VPLYKLVHVFINTQYAGITKIGNQNFLTVFDSTSCNVVVASQECVGGACVCPNLQKYEKLKPKYISDGNVQVKFFDTGSAVGRGIEDSLTISQLTTSQQDIVLADELSQEVCILSADVVVGIAAPGCPNALKGKTVLENFVEENLIAPVFSIHHARFQDGEHFGEIIFGGSDWKYVDGEFTYVPLVGDDSWKFRLDGVKIGDTTVAPAGTQAIIDTSKAIIVGPKAYVNPINAAIGCVVEKTTTRRICKLDCSKIPSLPDVTFVINGRNFNISSQYYIQQNGNLCYSGFQPCGHSDHFFIGDFFVDHYYSEFNWENKTMGFGRSVESV
Consider B2, for which the other: Biotinylated mAb 4C3 bound to Bla g 2 (%) in test [3] (setting [7]) came to 58%; in test [3] (setting [8]), 15%. In test [4] (setting [9]), the response (Absorbance (405 nm)) came out at 1.

B3: natural Bla g 2 N93Q (protein)
chain: VPLYKLVHVFINTQYAGITKIGNQNFLTVFDSTSCNVVVASQECVGGACVCPNLQKYEKLKPKYISDGNVQVKFFDTGSAVGRGIEDSLTISQLTTSQQDIVLADELSQEVCILSADVVVGIAAPGCPNALKGKTVLENFVEENLIAPVFSIHHARFQDGEHFGEIIFGGSDWKYVDGEFTYVPLVGDDSWKFRLDGVKIGDTTVAPAGTQAIIDTSKAIIVGPKAYVNPINEAIGCVVEKTTTRRICKLDCSKIPSLPDVTFVINGRNFNISSQYYIQQNGNLCYSGFQPCGHSDHFFIGDFFVDHYYSEFNWENKTMGFGRSVESV
Turning to B3, the values for the other: Biotinylated mAb 4C3 bound to Bla g 2 (%) in test [3] (setting [10]) and in test [3] (setting [11]) were 82% and 32%, respectively. Also, in test [4] (setting [12]), the response (Absorbance (405 nm)) came out at 1.5.

B4: recombinant Bla g 2-N268Q E233R; I199W (protein)
chain: VPLYKLVHVFINTQYAGITKIGNQNFLTVFDSTSCNVVVASQECVGGACVCPNLQKYEKLKPKYISDGNVQVKFFDTGSAVGRGIEDSLTISNLTTSQQDIVLADELSQEVCILSADVVVGIAAPGCPNALKGKTVLENFVEENLIAPVFSIHHARFQDGEHFGEIIFGGSDWKYVDGEFTYVPLVGDDSWKFRLDGVKWGDTTVAPAGTQAIIDTSKAIIVGPKAYVNPINRAIGCVVEKTTTRRICKLDCSKIPSLPDVTFVINGRNFQISSQYYIQQNGNLCYSGFQPCGHSDHFFIGDFFVDHYYSEFNWENKTMGFGRSVESV
As for B4, the other: Biotinylated mAb 4C3 bound to Bla g 2 (%) in test [3] (competitor concentration 0.1 µg/ml, parent: est. 88) is 93%; in test [3] (competitor concentration 1 µg/ml, parent: est. 46), 82%; in test [3] (competitor concentration 10 µg/ml, parent: est. 7) it was 78%; in test [3] (setting [13]) it was 62%. Also, the response (Absorbance (405 nm)) stood at 0.2 in test [4] (setting [14]) and 0.4 in test [4] (allergen concentration about 400 ng/ml (highest point of the series), parent: est. 1.1).

B5: recombinant Bla g 2-N93Q K251A (protein)
chain: VPLYKLVHVFINTQYAGITKIGNQNFLTVFDSTSCNVVVASQECVGGACVCPNLQKYEKLKPKYISDGNVQVKFFDTGSAVGRGIEDSLTISQLTTSQQDIVLADELSQEVCILSADVVVGIAAPGCPNALKGKTVLENFVEENLIAPVFSIHHARFQDGEHFGEIIFGGSDWKYVDGEFTYVPLVGDDSWKFRLDGVKIGDTTVAPAGTQAIIDTSKAIIVGPKAYVNPINEAIGCVVEKTTTRRICKLDCSAIPSLPDVTFVINGRNFNISSQYYIQQNGNLCYSGFQPCGHSDHFFIGDFFVDHYYSEFNWENKTMGFGRSVESV
On to B5, for which the other: Biotinylated mAb 4C3 bound to Bla g 2 (%) was 100% in test [3] (setting [15]), 100% in test [3] (setting [7]), 93% in test [3] (setting [8]) and 60% in test [3] (setting [13]). In addition, the figures for the response (Absorbance (405 nm)) in test [4] (setting [9]) and in test [4] (setting [16]) were 0.14 and 0.27, respectively.

B6: recombinant Bla g 2-N93Q E86A (protein)
chain: VPLYKLVHVFINTQYAGITKIGNQNFLTVFDSTSCNVVVASQECVGGACVCPNLQKYEKLKPKYISDGNVQVKFFDTGSAVGRGIADSLTISQLTTSQQDIVLADELSQEVCILSADVVVGIAAPGCPNALKGKTVLENFVEENLIAPVFSIHHARFQDGEHFGEIIFGGSDWKYVDGEFTYVPLVGDDSWKFRLDGVKIGDTTVAPAGTQAIIDTSKAIIVGPKAYVNPINEAIGCVVEKTTTRRICKLDCSKIPSLPDVTFVINGRNFNISSQYYIQQNGNLCYSGFQPCGHSDHFFIGDFFVDHYYSEFNWENKTMGFGRSVESV
B6: the other: Biotinylated mAb 7C11 bound to Bla g 2 (%) was determined as 82% in test [1] (setting [5]) and 18% in test [1] (setting [6]). For the same molecule, the response (Absorbance (405 nm)) in test [2] came out at 1.5.

B7: recombinant Bla g 2-N93Q D248A (protein)
chain: VPLYKLVHVFINTQYAGITKIGNQNFLTVFDSTSCNVVVASQECVGGACVCPNLQKYEKLKPKYISDGNVQVKFFDTGSAVGRGIEDSLTISQLTTSQQDIVLADELSQEVCILSADVVVGIAAPGCPNALKGKTVLENFVEENLIAPVFSIHHARFQDGEHFGEIIFGGSDWKYVDGEFTYVPLVGDDSWKFRLDGVKIGDTTVAPAGTQAIIDTSKAIIVGPKAYVNPINEAIGCVVEKTTTRRICKLACSKIPSLPDVTFVINGRNFNISSQYYIQQNGNLCYSGFQPCGHSDHFFIGDFFVDHYYSEFNWENKTMGFGRSVESV
Take B7: the figures for the other: Biotinylated mAb 4C3 bound to Bla g 2 (%) in test [3] (setting [15]) and in test [3] (setting [7]) were 48% and 7%, respectively. Moreover, in test [4] (setting [9]), the response (Absorbance (405 nm)) stood at 1.8.

B8: recombinant Bla g 2-N93Q E233R (protein)
chain: VPLYKLVHVFINTQYAGITKIGNQNFLTVFDSTSCNVVVASQECVGGACVCPNLQKYEKLKPKYISDGNVQVKFFDTGSAVGRGIEDSLTISQLTTSQQDIVLADELSQEVCILSADVVVGIAAPGCPNALKGKTVLENFVEENLIAPVFSIHHARFQDGEHFGEIIFGGSDWKYVDGEFTYVPLVGDDSWKFRLDGVKIGDTTVAPAGTQAIIDTSKAIIVGPKAYVNPINRAIGCVVEKTTTRRICKLDCSKIPSLPDVTFVINGRNFNISSQYYIQQNGNLCYSGFQPCGHSDHFFIGDFFVDHYYSEFNWENKTMGFGRSVESV
On to B8, for which, in test [3] (setting [15]), the other: Biotinylated mAb 4C3 bound to Bla g 2 (%) was found to be 72%. Besides, the response (Absorbance (405 nm)) in test [4] (setting [9]) was found to be 1.7.

B9: recombinant Bla g 2-N93Q E233R; I199W (protein)
chain: VPLYKLVHVFINTQYAGITKIGNQNFLTVFDSTSCNVVVASQECVGGACVCPNLQKYEKLKPKYISDGNVQVKFFDTGSAVGRGIEDSLTISQLTTSQQDIVLADELSQEVCILSADVVVGIAAPGCPNALKGKTVLENFVEENLIAPVFSIHHARFQDGEHFGEIIFGGSDWKYVDGEFTYVPLVGDDSWKFRLDGVKWGDTTVAPAGTQAIIDTSKAIIVGPKAYVNPINRAIGCVVEKTTTRRICKLDCSKIPSLPDVTFVINGRNFNISSQYYIQQNGNLCYSGFQPCGHSDHFFIGDFFVDHYYSEFNWENKTMGFGRSVESV
For B9, the other: Biotinylated mAb 4C3 bound to Bla g 2 (%) amounted to 100% in test [3] (setting [15]), 100% in test [3] (setting [7]), 69% in test [3] (setting [8]) and 22% in test [3] (setting [13]). Besides, the response (Absorbance (405 nm)) amounted to 0.14 in test [4] (setting [9]) and 0.27 in test [4] (setting [16]).

B10: recombinant Bla g 2-N268Q E233R (protein)
chain: VPLYKLVHVFINTQYAGITKIGNQNFLTVFDSTSCNVVVASQECVGGACVCPNLQKYEKLKPKYISDGNVQVKFFDTGSAVGRGIEDSLTISNLTTSQQDIVLADELSQEVCILSADVVVGIAAPGCPNALKGKTVLENFVEENLIAPVFSIHHARFQDGEHFGEIIFGGSDWKYVDGEFTYVPLVGDDSWKFRLDGVKIGDTTVAPAGTQAIIDTSKAIIVGPKAYVNPINRAIGCVVEKTTTRRICKLDCSKIPSLPDVTFVINGRNFQISSQYYIQQNGNLCYSGFQPCGHSDHFFIGDFFVDHYYSEFNWENKTMGFGRSVESV
Regarding B10, in test [4] (setting [14]), the response (Absorbance (405 nm)) was found to be 1.2.

B11: natural Bla g 2 N268Q (protein)
chain: VPLYKLVHVFINTQYAGITKIGNQNFLTVFDSTSCNVVVASQECVGGACVCPNLQKYEKLKPKYISDGNVQVKFFDTGSAVGRGIEDSLTISNLTTSQQDIVLADELSQEVCILSADVVVGIAAPGCPNALKGKTVLENFVEENLIAPVFSIHHARFQDGEHFGEIIFGGSDWKYVDGEFTYVPLVGDDSWKFRLDGVKIGDTTVAPAGTQAIIDTSKAIIVGPKAYVNPINEAIGCVVEKTTTRRICKLDCSKIPSLPDVTFVINGRNFQISSQYYIQQNGNLCYSGFQPCGHSDHFFIGDFFVDHYYSEFNWENKTMGFGRSVESV
Regarding B11, the other: Biotinylated mAb 4C3 bound to Bla g 2 (%) in test [3] (setting [10]) was 88%; in test [3] (setting [11]), 46%; in test [3] (competitor concentration 10 µg/ml), 7%. Further, the response (Absorbance (405 nm)) in test [4] (setting [12]) came to 0.48.
